In paper PMC9817179:

Assays:
Halo-TAF15(IDR)-NLS = Halo-TAF15(IDR)-NLS (UniProt Q92804); experiment: live-cell single-particle tracking (SPT), residence time in puncta; living U2OS cells at 37°C, 5% CO2; HILO illumination; PA-JF646-labelled single molecules tracked (500 ms per frame, 2000 frames) within puncta of the same protein seen with JFX549; in-puncta trajectories; specific residence time of a two-component exponential fit, corrected for photobleaching with H2B-Halo
NLS-TAF15(IDR)-Halo-FTH1 = NLS-TAF15(IDR)-Halo-FTH1 (UniProt Q92804); experiment: as above

Chain of Halo-TAF15(IDR)-NLS (Q92804 whole entry): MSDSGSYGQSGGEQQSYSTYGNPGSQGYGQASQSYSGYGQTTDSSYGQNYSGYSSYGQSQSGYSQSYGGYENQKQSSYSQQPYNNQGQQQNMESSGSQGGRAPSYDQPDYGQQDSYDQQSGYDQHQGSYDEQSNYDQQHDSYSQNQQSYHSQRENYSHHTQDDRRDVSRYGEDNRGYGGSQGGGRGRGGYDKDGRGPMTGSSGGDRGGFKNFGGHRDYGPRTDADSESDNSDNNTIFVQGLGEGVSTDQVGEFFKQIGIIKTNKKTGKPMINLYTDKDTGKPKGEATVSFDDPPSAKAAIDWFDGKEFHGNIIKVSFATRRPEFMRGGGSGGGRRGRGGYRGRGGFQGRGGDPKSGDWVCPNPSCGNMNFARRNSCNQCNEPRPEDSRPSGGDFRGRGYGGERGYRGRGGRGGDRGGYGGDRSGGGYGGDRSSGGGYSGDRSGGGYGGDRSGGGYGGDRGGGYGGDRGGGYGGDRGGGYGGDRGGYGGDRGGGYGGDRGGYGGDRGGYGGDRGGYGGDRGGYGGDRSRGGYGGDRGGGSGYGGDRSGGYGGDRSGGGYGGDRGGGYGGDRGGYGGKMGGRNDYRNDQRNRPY

| residence time (RT) at its puncta (Halo-TAF15(IDR)-NLS) | residence time (RT) at its puncta (NLS-TAF15(IDR)-Halo-FTH1) | Substance |
| --- | --- | --- |
| 10.2 s |  | Halo-TAF15(IDR)-NLS (from UniProt Q92804 2-205) (domain or fragment) |
|  | 64.2 s | NLS-TAF15(IDR)-Halo-FTH1 (from UniProt Q92804 2-205) |
